These results are taken from patent US20240263193A1 (published 2024).

One test has as its target EGFP(R96M)-AlfaTag. The test can be described thus: cell-based or functional assay.
The target of the next test is T1, CP5-46-4D5E.
T1 peptide: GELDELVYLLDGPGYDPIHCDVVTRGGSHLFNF
The test can be described thus: cell-based or functional assay.

B1: ALFA-Bcl dual input iADAR (other)
chain: MASNFTQFVLVDNGGTGDVTVAPSNFANGIAEWISSNSRSQAYKVTCSVRQSSAQNRKYTIKVEVPKGAWRSYLNMELTIPIFATNSDCELIVKAMQGLLKDGNPIPSAIAANSGIYGGSGSGAGSGSPAGGGAPGSGGGSTGAPPNLWAAQRYGRELRRMSDEFVDSFKKASQLHLPQVLADAVSRLVLGKFGDLTDNFSSPHARRKVLAGVVMTTGTDVKDAKVISVSTGTKCINGEYMSDRGLALNDCHAEIISRRSLLRFLYTQLELYLNNKDDQKRSIFQKSERGGFRLKENVQFHLYISTSPCGDARIFSPHEPILEEPAASGSGPGRLEEELRRRLSPGTGDRHPNRKARGQLRTKIESGQGTIPVRSNASIQTWDGVLQGERLLTMSCSDKIARWNVVGIQGSLLSIFVEPIYFSSIILGSLYHGDHLSRAMYQRISNIEDLPPLYTLNKPLLSGISNAEARQPGKAPNFSVNWTVGDSAIEVINATTGKDELGRASRLCKHALYCRWMRVHGKVPSHLLRSKITKPNVYHESKLAAKEYQAAKARLFTAFIKAGLGAWVEKPTEQDQYSLTGSGGTAEVQLQESGGGLVQPGGSLRLSCTASGVTISALNAMAMGWYRQAPGERRVMVAAVSERGNAMYRESVQGRFTVTRDFTNKMVSLQMDNLKPEDTAVYYCHVLEDRVDSFHDYWGQGTQVTVSSGAGSGASSNRELVVDFLSYKLSQKGYSWSQFSDVEENRTEAPEGTESEMETPSAINGNPSWHLADSPAVNGATGHSSSLDAREVIPMAAVKQALREAGDEFELRYRRAFSDLTSQLHITPGTAYQSFEQVVNELFRDGVNWGRIVAFFSFGGALCVESVDKEMQVLVSRIAAWMATYLNDHLEPWIQENGGWDTFVELYGNNGSSELIKENMHMKLYMEGTVDNHHFKCTSEGEGKPYEGTQTMRIKVVEGGPLPFAFDILATSFLYGSKTFINHTQGIPDFFKQSFPEGFTWERVTTYEDGGVLTATQDTSLQDGCLIYNVKIRGVNFTSNGPVMQKKTLGWEAFTETLYPADGGLEGRNDMALKLVGGSHLIANIKTTYRSKKPAKNLKMPGVYYVDYRLERIKEANNETYVEQHEVAVARYCDLPSKLGHKLN
In the case of B1, the “median relative fluorescence of the 4xUAG-MS2 reporter, A-1331852 plus EGFP(R96M)-AlfaTag against A-1331852 alone, HEK293FT, flow cytometry” value with EGFP(R96M)-AlfaTag is roughly 110 fold.

B2: NS4A/NS3 (Genotype 1B) (enzyme)
chain: GSVVIVGRIILSGSGSITAYSQQTRGLLGCIITSLTGRDKNQVEGEVQVVSTATQSFLATCVNGVCWTVYHGAGSKTLAGPKGPITQMYTNVDQDLVGWQAPPGARSLTPCTCGSSDLYLVTRHADVIPVRRRGDSRGSLLSPRPVSYLKGSSGGPLLCPSGHAVGIFRAAVCTRGVAKAVDFVPVESMETTMRS
On to B2, for which, in the test with CP5-46-4D5E, the “fold change of the grazoprevir treated iADAR compared to DMSO treated, unmutated Pep-NS3 system, 4xUAG MS2 reporter, HEK293FT, flow cytometry (intramolecular pair)” value was roughly 31 fold and the “ratio of mNeonGreen to mCherry (mNG/mCh), 2 µM grazoprevir against no drug, HEK cells, microscopy (intramolecular pair)” value is roughly 18 fold.
